Assay results reported in US20240148894A1, “USE OF ANTIBODY-DRUG CONJUGATE TARGETING HER2 IN TREATMENT OF SPECIFIC BREAST CANCER” (priority 2021, published 2024).
“And” between values parts separate entries of the source, which are not always exact repeats. Equal entries are not always repeated. “Also recorded” adds a separate entry of the source.

Test system: HER2-positive (IHC 3+ or FISH +) locally advanced or metastatic breast cancer
Test: Parallel-group, randomized, open-label clinical trial; progression-free survival (PFS), ITT and metastatic-site subgroup analyses
Type: in vivo, human
Procedure: This study was a parallel-group, randomized, open-label clinical trial to evaluate the efficacy and safety of Disitamab vedotin as compared to treatment with lapatinib and capecitabine in patients with HER2-positive (positive being defined as IHC 3+ or FISH +) locally advanced or metastatic breast cancer. Subjects were randomized 1:1.
The primary endpoint indicator of the study was PFS (progression-free survival), which was evaluated for 6 weeks (±7 days).
Disitamab vedotin, namely RC48-ADC (average DAR value: 4±0.5), was administered at a dose of 2.0 mg/kg via intravenous drip, once every 2 weeks, 42 days as one treatment cycle.

[1] = overall ITT, RC48-ADC relative to capecitabine+lapatinib

B1: Disitamab vedotin (conjugate, chains of the INN, looked up)
VH: EVQLVQSGAEVKKPGATVKISCKVSGYTFTDYYIHWVQQAPGKGLEWMGRVNPDHGDSYYNQKFKDKATITADKSTDTAYMELSSLRSEDTAVYFCARNYLFDHWGQGTLVTVSS
VL: DIQMTQSPSSVSASVGDRVTITCKASQDVGTAVAWYQQKPGKAPKLLIYWASIRHTGVPSRFSGSGSGTDFTLTISSLQPEDFATYYCHQFATYTFGGGTKVEIK
modifications: vedotin (MMAE) payload
Bone metastasis: No (N=63 vs 68), ITT
  Disease progression or death, %: 63.5%
Bone metastasis: No, ITT
  Censoring, %: 36.5%
Bone metastasis: No, ITT, Kaplan-Meier
  Progression-free survival time, Median (95% CI): 9.6 months and 9.6 (6.9, 13.1) months
Bone metastasis: No, RC48-ADC relative to capecitabine+lapatinib
  COX proportional hazards model (without considering stratification factors) Hazard ratio (95% CI): 0.76 (0.50, 1.15)
Bone metastasis: Yes (N=36 vs 33), ITT
  Disease progression or death, %: 77.8%
Bone metastasis: Yes, ITT
  Censoring, %: 22.2%
Bone metastasis: Yes, ITT, Kaplan-Meier
  Progression-free survival time, Median (95% CI): 7.8 months and 7.8 (2.8, 12.4) months
Bone metastasis: Yes, RC48-ADC relative to capecitabine+lapatinib
  COX proportional hazards model (without considering stratification factors) Hazard ratio (95% CI): 0.95 (0.56, 1.61)
Liver metastasis: No (N=61 vs 58), ITT
  Disease progression or death, %: 75.4%
Liver metastasis: No, ITT
  Censoring, %: 24.6%
Liver metastasis: No, ITT, Kaplan-Meier
  Progression-free survival time, Median (95% CI): 7.0 months and 7.0 (5.5, 9.9) months
Liver metastasis: No, RC48-ADC relative to capecitabine+lapatinib
  COX proportional hazards model (without considering stratification factors) Hazard ratio (95% CI): 1.26 (0.83, 1.91)
Liver metastasis: Yes (N=38 vs 43), ITT
  Disease progression or death, %: 57.9%
Liver metastasis: Yes, ITT
  Censoring, %: 42.1%
Liver metastasis: Yes, ITT, Kaplan-Meier
  Progression-free survival time, Median (95% CI): 12.5 months and 12.5 (7.1, 14.1) months
Liver metastasis: Yes, RC48-ADC relative to capecitabine+lapatinib
  COX proportional hazards model (without considering stratification factors) Hazard ratio (95% CI): 0.41 (0.24, 0.71)
Lung metastasis: No (N=55 vs 49), ITT
  Disease progression or death, %: 61.8%
Lung metastasis: No, ITT
  Censoring, %: 38.2%
Lung metastasis: No, ITT, Kaplan-Meier
  Progression-free survival time, Median (95% CI): 10.9 months and 10.9 (5.7, 13.7) months
Lung metastasis: No, RC48-ADC relative to capecitabine+lapatinib
  COX proportional hazards model (without considering stratification factors) Hazard ratio (95% CI): 0.68 (0.42, 1.07)
Lung metastasis: Yes (N=44 vs 52), ITT
  Disease progression or death, %: 77.3%
Lung metastasis: Yes, ITT
  Censoring, %: 22.7%
Lung metastasis: Yes, ITT, Kaplan-Meier
  Progression-free survival time, Median (95% CI): 8.2 months and 8.2 (5.6, 12.2) months
Lung metastasis: Yes, RC48-ADC relative to capecitabine+lapatinib
  COX proportional hazards model (without considering stratification factors) Hazard ratio (95% CI): 1.05 (0.67, 1.65)
Viscera metastasis (CRF): No (N=22 vs 23), ITT
  Disease progression or death, %: 68.2%
Viscera metastasis (CRF): No, ITT
  Censoring, %: 31.8%
Viscera metastasis (CRF): No, ITT, Kaplan-Meier
  Progression-free survival time, Median (95% CI): 9.6 months and 9.6 (4.3, 14.2) months
Viscera metastasis (CRF): Yes (N=77 vs 78), ITT
  Disease progression or death, %: 68.8%
Viscera metastasis (CRF): Yes, ITT
  Censoring, %: 31.2%
Viscera metastasis (CRF): Yes, ITT, Kaplan-Meier
  Progression-free survival time, Median (95% CI): 9.3 months and 9.3 (6.9, 12.2) months
Viscera metastasis: No (as printed in Table 7), vs capecitabine+lapatinib
  relative risk reduction of disease progression or death: 24% chance of
Viscera metastasis: No, RC48-ADC relative to capecitabine+lapatinib
  COX proportional hazards model (without considering stratification factors) Hazard ratio (95% CI): 1.02 (0.51, 2.05)
Viscera metastasis: Yes, RC48-ADC relative to capecitabine+lapatinib
  COX proportional hazards model (without considering stratification factors) Hazard ratio (95% CI): 0.76 (0.53, 1.10)
[1]
  COX proportional hazards model (considering stratification factors) Hazard ratio (95% CI): 0.82 (0.59, 1.13)
  COX proportional hazards model (without considering stratification factors) Hazard ratio (95% CI): 0.82 (0.60, 1.14)
Overall sample of breast cancer patients
  PFS comparison with control group, in words: did not show a statistically significant advantage
overall, ITT analysis set
  Censoring, %: 31.3%
overall, ITT analysis set (N=99 vs 101)
  Disease progression or death, %: 68.7%
overall, ITT analysis set, Kaplan-Meier
  Progression-free survival, Median (95% CI): 9.3 months and 9.3 (6.9, 12.2) months
Patients with bone metastasis
  PFS comparison with control group, in words: no very significant difference; also recorded: no statistically significant difference
Patients with liver metastasis, vs capecitabine+lapatinib
  median progression-free survival time longer than control treatment group by: 6.9 months
Patients with lung metastasis
  PFS comparison with control group, in words: no significant difference
  progression-free survival time shorter than capecitabine+lapatinib by: 0.1 months
Patients with viscera metastasis
  PFS comparison with control group, in words: did not show statistical differences; also recorded: no statistically significant difference
Patients with viscera metastasis, vs lapatinib+capecitabine
  median progression-free survival time longer than control treatment group by: 2.4 months
Patients without bone metastasis
  PFS comparison with control group, in words: did not show a statistically significant advantage; also recorded: no very significant difference; also recorded: no statistically significant difference
Patients without bone metastasis, vs capecitabine+lapatinib
  relative risk reduction of disease progression or death: 24% chance of
Patients without bone metastasis, vs lapatinib+capecitabine
  median progression-free survival time longer than control treatment group by: 1.6 months
Patients without liver metastasis, vs capecitabine+lapatinib
  median progression-free survival time shorter than control treatment group by: 2.0 months
Patients without lung metastasis, vs capecitabine+lapatinib
  median progression-free survival time longer than control treatment group by: 5.3 months
Patients without viscera metastasis
  PFS comparison with control group, in words: did not show a statistically significant advantage; also recorded: no statistical difference; also recorded: no statistically significant difference
Patients without viscera metastasis, vs lapatinib+capecitabine
  median progression-free survival time longer than control treatment group by: 1.5 months
